Our source for the Kd values is article PMC11163200, “C3d-Targeted factor H inhibits tissue complement in disease models and reduces glomerular injury without affecting circulating complement” (Molecular Therapy, 2024).

Common to all, as to conditions: both partners purified
The target of assay [1] is T1, recombinant C3d ( (human, cynomolgus monkey or …, UniProt P01024 1002-1303)).
T1 construct: C3d fragment of complement C3, recombinant, amine-coupled to the CM5 chip; source: recombinant
The experiment in a line: SPR; Biacore 3000 or T200, 25°C; recombinant C3d amine-coupled on a CM5 chip at high density (4,200 RU); CR2-fH1–5 injected at 0–1,000 nM, 30 μL/min; Langmuir 1:1 fit.

Assay [2] concerns the target T1, recombinant C3d. The experiment in a line: SPR; Biacore 3000 or T200, 25°C; recombinant C3d amine-coupled on a CM5 chip at medium density (750 RU); CR2-fH1–5 injected at 0–1,000 nM, 30 μL/min; Langmuir 1:1 fit.
In assay [3] the target is T1, recombinant C3d. The experiment in a line: SPR; Biacore 3000 or T200, 25°C; recombinant C3d amine-coupled on a CM5 chip at medium-high density (2,500 RU); CR2-fH1–5 injected at 0–1,000 nM, 30 μL/min; Langmuir 1:1 fit.
For assay [4], the target named is T1, recombinant C3d. The experiment in a line: SPR; Biacore 3000 or T200, 25°C; recombinant C3d amine-coupled on a CM5 chip at low density (10 RU); CR2-fH1–5 injected at 0–1,000 nM, 30 μL/min, 120 s association, 180 s dissociation; Langmuir 1:1 fit. Background: Surface plasmon resonance follows binding to a sensor surface in real time, without labels.

T1 sequence (P01024 1002-1303): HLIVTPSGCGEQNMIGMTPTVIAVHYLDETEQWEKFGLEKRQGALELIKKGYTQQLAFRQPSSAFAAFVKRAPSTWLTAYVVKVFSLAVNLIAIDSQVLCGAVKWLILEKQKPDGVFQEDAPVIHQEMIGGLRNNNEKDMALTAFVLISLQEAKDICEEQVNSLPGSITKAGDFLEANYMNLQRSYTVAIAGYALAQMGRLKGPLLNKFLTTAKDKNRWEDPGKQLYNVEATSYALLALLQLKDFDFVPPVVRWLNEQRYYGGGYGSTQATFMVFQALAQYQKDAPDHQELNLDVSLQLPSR

B1: TT30 (other)
chain: ISCGSPPPILNGRISYYSTPIAVGTVIRYSCSGTFRLIGEKSLLCITKDKVDGTWDKPAPKCEYFNKYSSCPEPIVPGGYKIRGSTPYRHGDSVTFACKTNFSMNGNKSVWCQANNMWGPTRLPTCVSVFPLECPALPMIHNGHHTSENVGSIAPGLSVTYSCESGYLLVGEKIINCLSSGKWSAVPPTCEEARCKSLGRFPNGKVKEPPILRVGVTANFFCDEGYRLQGPPSSRCVIAGQGVAWTKMPVCEEEDCNELPPRRNTEILTGSWSDQTYPEGTQAIYKCRPGYRSLGNVIMVCRKGEWVALNPLRKCQKRPCGHPGDTPFGTFTLTGGNVFEYGVKAVYTCNEGYQLLGEINYRECDTDGWTNDIPICEVVKCLPVTAPENGKIVSSAMEPDREYHFGQAVRFVCNSGYKIEGDEEMHCSDDGFWSKEKPKCVEISCKSPDVINGSPISQKIIYKENERFQYKCNMGYEYSERGDAVCTESGWRPLPSCEEKSCDNPYIPNGDYSPLRIKHRTGDEITYQCRNGFYPATRGNTAKCTSTGWIPAPRCTL
modifications: Limits are not printed. TT30 is taken as CR2 SCR1-4 (the C3d-binding end) fused directly to factor H SCR1-5, from general knowledge of TT30, with limits from the UniProt Sushi domain features. …
On to B1, for which the Kd (in general, the equilibrium constant for the complex coming apart) in the assay with recombinant C3d [1] amounted to 1890 nM; in the assay with recombinant C3d [2] it was 1260 nM; in the assay with recombinant C3d [3], 1890 nM; in the assay with recombinant C3d [4], 1080 nM.
